Molecular target: MBP-ZAT10 (Arabidopsis thaliana, UniProt Q96289 1-227)
Assay: EMSA; 2 ug protein in 20 uL; EMSA/gel-shift binding 5x buffer (Beyotime; composition not stated), 20 uL, 25 C, 30 min, 12% native PAGE; protein eluted in 20 mM Tris-HCl, 100 mM NaCl, 10 mM
Details: protein: recombinant; tags: N-terminal MBP (pMAL-c4X); blunt

MBP-ZAT10, sequence (Q96289 whole entry): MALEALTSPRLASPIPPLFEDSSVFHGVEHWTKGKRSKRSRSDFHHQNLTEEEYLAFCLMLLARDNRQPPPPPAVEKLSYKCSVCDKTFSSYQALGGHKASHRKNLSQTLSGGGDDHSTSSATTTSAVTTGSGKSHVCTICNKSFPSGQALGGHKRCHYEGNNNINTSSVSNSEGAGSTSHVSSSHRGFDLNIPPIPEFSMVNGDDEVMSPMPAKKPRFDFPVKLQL

B1: ZAT10 promoter probe (P) (dsDNA)
DNA 1: ATCGCCACCTTCACTCTTCACACTTTCCTACCACTTGTCACGCAACTT
DNA 2: AAGTTGCGTGACAAGTGGTAGGAAAGTGTGAAGAGTGAAGGTGGCGAT
B1: binds.

Source: article PMC9468636, “ZAT10 plays dual roles in cadmium uptake and detoxification in Arabidopsis”
